This note sets out measurements from a protein production outcome set (Wang et al. 2014).

This data set in a line: label from the status in PepcDB records.
In the case of “MSPQSPSNSSISTDDQAGKNPAAAFGPNEWLVDEIYQQYLQDPNSVDRAWWDFFADYKPGAAAASAPAGTAAAGAAETTTPAPAAPTAAAPAAPAAPAPAAPAPAPAAPAPAAAPAVPKPAAAAPAPAAAKPAAAAPAQPKAAAATEAAEGPTFVPLRGPAAAVAKNMNASIEVPTATSVRAVPVKLLFDNRIVINNHLKRARGGKISFTHLIGYAMVQAIKAMPSMNWHYAEKDGKPTLVKPAHVNFGLAIDLVKPNGDRQLVVAGIKKAETLNFFEFWQAYEDIVRRARDGKLTMDDFTGVTVSLTNPGGLGTVHSVPRLMPGQSVIMGVGSMDYPAEFQGTSQDTLNKLGISKVMTLTSTYDHRVIQGAASGEFLRIVANFLLGEGGFYDEIFEALRIPYEPVRWLKDIDASHDDDVTKAARVFELIHSYRVRGHVMADTDPLEYRQRKHPDLDITEHGLTLWDLEREFAVGGFAGKSLMKLRDILGVLRDSYCRTTGIEFMHIQDPKQRKWIQDRIERSHSKPEREEQLRILRRLNAAEAFETFLQTKYVGQKRFSLEGGESVIPLLDAVIDSAAESRLDEVVIGMAHRGRLNVLANIVGKSYAQIFREFEGNLDPKSMHGSGDVKYHLGASGTFTGLDGEQIKVSLAANPSHLETVDPIIEGIARAKQDIINKGGTDFTVLPVALHGDAAFAGQGVVAETLNMSQLRGYRTGGTVHIVINNQVGFTAAPESSRSSMYATDVARMIEAPIFHVNGDDPEAVVRVARLAFEFRQAFNKDVVIDLICYRRRGHNESDNPAFTQPLMYDLIDKKRSVRKLYTESLIGRGDITLEEAEQALQDFQGQLEKVFTEVREAISTPGEAPAPEPQPEFPVAVPTAVSQEVVKRIAESQVNIPDHVTVHPRLLPQLQRRAAMIEDDTIDWGMGETLAIGSLLLEGTPVRLSGQDSRRGTFGQRHAVLIDRVTGEDFTPLQYLADDQARLNVYDSLLSEYAVMGFEYGYSLARPDALVMWEAQFGDFVNGAQTVVDEYISAAEQKWGQTSGVTLLLPHGYEGQGPDHSSARIERFLQLCAQNNMTVAQPTLPSNYFHLLRWQVHNPHHKPLVVFTPKSMLRLKAAASKTEEFTTGAFRPVIGDDTVDAAAVRKVVFCAGKLYYDLEAERKKRGATDAAAAETAIIRLERLYPLPGAELQAEIAKYPNAEKYLWAQEEPANQGAWPFIALNLIDHLDLAVGADVPHGERLRRISRPHSSSPAVGSAKRHQAEQEQLVREVFEA”, the protein production result is “failed”.
With “MSPSPLISHRAASADLAGMVRQARQRILLQGNVPGFDVARQIELLHGLAESELGRFLLLYRGLNAEWTHRLVTHQPGSGALAPLERVFYERLPAVLATRERHGHFRRALQRHLRPGCVVASVPCGWMSELLALDYSACPGVQLVGIDYDPEALDGATRLAAGHALAGQITLHRQDAWKLDTREGYDLLTSNGLNIYEPDDARVTELYRRFWQALKPGGALVTSFLTPPPALSPDSPWDMQAIDPHDLQLQQLVFTRLIQPRWNALRTHAQTRAQLEEAGFTDLRFEDDRARLFPTVIARKPA”, the protein production result is given as “not failed”.
As for “MSPTLSILIPVYKRDCRRLLEELYKQAEELSVGYEIILGDDCSGEPYTSQYIAYEQEGLCRLVSAEENMGAGRLRNRLAEEAQGEQLLILDSDTLPASPDFIERYLRHASGTTVVCGGFVYPPKSTNPLRQRYGAEVESRSAEERARKPHSGFISMAFMIPRKQMLATGFPPNMGMGYEDILFGERLRQAGIPILHIDNPVEHYHCDTAEGFLATTRSYLDNLYCHREELAELVSLLRAYNLLKRLHLEHHHHHH”, the entry is “failed”.
On to “MSPVINHPVLGPAAPSLGWVPAPRYWLRRQRVLDHMRTLERGRLLEIGCGGGALLADLSRLGFDCRALETSPAARVVARAMNADTEGDKIVETAPADWRGSFDVVAAFEVLEHIDDDVGALRDWRDWLVDGGHILISVPADPRKFNAADEWAGHFRRYDKEDLHKVLKQAGFSVVSSETYGYPLANFLEYFRASAHQLMRKQWAHRSRDDATAQSGVNRSLDSKVWPLYSSALGVRALRLADSLQKRFRDNGRGNGLLVIGRRI”, for which the protein production result is “failed”.
As for “MSQEIAVIGSPAFTTGFQLAGVRKVENVADDEKDDDLDAAVEAVLADEDVGIAVMHDDDLAHLSRGVRQSVEASVEPTFVTIGGGASGASGLRDQIKRAIGIDLMDDDDDASAADTEAGDLEHHHHHH”, the protein production entry is “not failed”.
Turning to “MSQFFYIHPDNPQQRLINQAVEIVRKGGVIVYPTDSGYALGCKIEDKNAMERICRIRQLPDGHNFTLMCRDLSELSTYSFVDNVAFRLMKNNTPGNYTFILKGTKEVPRRLLQEKRKTIGMRVPSNPIAQALLEALGEPMLSTSLMLPGSEFTESDPEEIKDRLEKQVDLIIHGGYLGQKPTTVIDLTDDTPVVVREGVGDVKPFL”, the protein production result is recorded as “not failed”.
Next, “MSQNVISQPVEAQQSFARAVTESLPGLLLVCAVALVASFVAPKLEAYPLFKTYLSLKDFILAIIFGIIIRNTVGVPAVFQPGLRYSTIMTKTGIVIMGSSYSLAGLVSVGAQALVFIAVFLFGTALVMMWLCRKVGMSTPLAACLAAGMSVCGVSATIAIAPAVKAKNEDMAYSIAVVLMFGLLALIAFPLIGKVFNLTPEQFGAFAGVGIVNSAQVLAAGFGFSQEAGIVAGIYNIGRVVFLPFVVLMLAIMAAAQEAEQGNEVAKINKWQMIRDKFPLFVLGFLAIVCLNTAGVLTKPEVKMAKHFMEWAFLLGFASIGLTTRLSDLRAAGLNGFLFGFGVAGLKAALALAAVLLFMS”: “failed”.
Next, “MSQSTHQSTDHKRQSQDKNQTHAYAKVWLYFMYYWMIFGIGCYFGQYLPMSWRKPLSLGLLILILATLFIKRARKYGLVISHIYAIIVGLLSYALFTTYLQNLGAEVFYKNIILAIGAFIAFGIIGYFLIKDASSMGKYLFVTLIALIIAGIIGIFINNPIFHTVITIVSLLLFLLYTLYDFNRMKRGQFSPREMGFNLFINLLNIIEDILSLANRFKN”: “failed”; “MSQTTTYAGSAGTAKTEIETSTIRAISWRLIPFLVLAYFFSYLDRVNLGFAALTMNAELKFTPLIFSWGAGIFFIGYFIFEVPSNLALEKFGASRWIARIMVTWGIISALMAMVSGVTSFYVLRFLLGVAEAGFFPGIILYLTYWYPAEYRARFLAAFAIAVPVSTVIGAPVSGLLLGLDGVMGLKGWQWLFIIEGIPSVLLGIVTWFYLTDRPEKADWLSAEQKAWLKAKLDSEIAAKQAVKHLSLGEALSSPKVIALSLIYFGFVGALYGMQFWLPQIVKAFGLTNAQTGFVTAIPYLFGTVAMILWARHSDATRERVMHVGAPLLLTAVALGVSSYLTDPTLTMVVLTVAAIGVFCCFGVFWTLPTAWLSGTAAAGGIALINSIGNLAGFGGPYLIGWVKEATGQTSTGLLVLAVLPLLAGILVFVGGHDSKHEFAGQGR”: “failed”; “MSRAKAAPVAGPEVAANRAGRQARIVAILSSAQVRSQNELAALLAAEGIEVTQATLSRDLEELGAVKLRGADGGTGIYVVPEDGSPVRGVSGGTDRMARLLGELLVSTDDSGNLAVLRTPPGAAHYLASAIDRAALPQVVGTIAGDDTILVVAREPTTGAQLAGMFENLR”: “not failed”.
As for “MSRDEVLTRMRRFGPLAVVAVLCAAAFASGLVEHISLEELRLRGTQLQAFAHENPLLCAAIYLAVYVGTVAISLPGALILSLTGGFLFGPIGGGLAAVTGATGGSTVTFLVFRTAFGEALPFKSSAFIARIAEGLKGDAFNYLLTLRLIPAFPLLAVNVAAGVMNVRVRTFLLASVLGMIPSSFVYAGIGAGLGHVFAKGGPVTVESLLSPRIYLPIIGMGVLAFLPPLWRHWRNGRDVASLDEK”, the protein production entry is recorded as “failed”.
As for “MSRDPTYTINEHDLSFADGRFYVTFKADKSSETVRLNSSCLGNTIIKKLQVEDDNTMHDFVKPKVTTQQAFGLAQQVKELDLQLKDPKSDLWGKIKFNNKAMLVEYANKEMSSAIAQSAEQILLQVKSIDDERYSKFEQTLNGIKQTVKSESVESARTQLASMFDSRISGLDGKYSRLSQTIDSLSSRLDDGVGNYSTLSQKVSGIDLRVSNAANDVSRLSQTAQGLQSQITNANQNYSSLSQTVQGLQTTVRDNQSNATSRINQLSDLISTKVSKGDVETTIAQSYDKIAFAIRDKLPASKMSGSEIISAINLDRSGVKITGKNITLDGNSYISNAVIKDAHIANMDAGKINTGYLNANRIATEAITGEKIKMDYAFFNKLTANEGYFRTLFAKDIFATSVQSVTLSASKITGGVLAATNGASQWDLNNANMTFNRDATINFNSKNNALVRKDGTHTAFVHFSNATPKGYRGSALYASIGITSSGDGIDSASSGRFAGLRSFRYATGYNHTAAVDQTELYGDNVLIADDFNINRGFKFRPDKMEKVLDMNDLYAAVVALGRCWGHLANVGWNTAHSNFTSAVSRELNNYITKI”, the protein production entry is given as “failed”.
Next, “MSRFHWLWPWRSSTSLRVTTVLRLGADQPAIVAAARASQACTRSPRTTRDAMAMHTNGSVFAGWDGSVIQAQQLQHQLAQRVLLHDEVSATPQLLAGFDVGFEDDGQTTRAAAVLLDAHTLLPLETHVARAPTSMPYVPGLLSFRELPALLQALARLSRTPDLVFIDGQGIAHPRRLGIAAHFGVVTGLPCIGIAKQRLAGSFAEPGPERGDHTPILLGGAQIGWALRSKPRCNPLIVSPGHCVSMQGALGWTLRTLRSYRLPEPTRLADRLASRRGKMPALAADTPLLF”: “failed”; “MSRGPLDPRAPLYKAVQIARRRAAEEGDSSWRVVAQAVEELARRVERLYELASRHGLSKPFWLSPRVLEVLRSVEDGDKGGAIERARSLSESLIPAGLAGEYSLATGTAARVLASIIFLASAAYIGVEGIQAPSTPAAVTTLALASFALAALLAASTHYSLYLLAVSTGASLAIATAYRPVVDSYSILMALYSAVLGFAAAAYSSYTRRKFYRMLRMLERGM”: “failed”.
Take “MSRIGKLLLGIVNLGPIGFMAVAVYRHGDLPASAVAVQVAVVAVLLGIYLRHLAGNDQLTRGLRRGWALVLLAGNWAVFPVYWHQFVWQDPRER”: the protein production result was “failed”.
As for “MSRINKFVLTVSLLIFIMISAVACGIYTQMVKERVYSLKQSVIDTAFAVANIAEYRRSVAIDLINTLNPTEEQLLVGLRTAYADSVSPSYLYDVGPYLISSDECIQVKEFEKNYCADIMQVVKYRHVKNTGFISFDGKTFVYYLYPVTHNRSLIFLLGLERFSLLSKSLAMDSENLMFSLFKNGKPVTGDEYNAKNAIFTVSEAMEHFAYLPTGLYVFAYKKDVYLRVCTLIIFFAALVAVISGASCLYLVRRVINRGIVEKEAIINNHFERVLDGGLFFSAADVKKLYSMYNSAFLDDLTKAMGRKSFDEDLKALPEKGGYLCLFDVDKFKNINDTFGHLLGDEVLMKVVKILKSQIPVDKGKVYRFGGDEFAVIYTGGTLEELLSILKEIVHFQVGSINLSTSIGVAHSNECPTVERLKMLADERLYKSKKNGRAQISWQ”, the entry is “failed”.
Next, “MSRKTMNPTTVTQQLQKTYQAVGDGLLSEAFGLVRASVPSQQSHFLTRIDDLENVYRQLLSYFAQGVKDEKQAEMLLYLKRKLIGLAAEVHRESVVAQGTGLFYDRLRYRRSIGFESLVTLLEQAETSTVRKQFDELVRLIFDSLWTADALTDEEAAALSHAGEYIRLVAASALTMALQQQWHSKKLYFLLEELARPDITADYRARLLVGVVLTLRSYPHHTRLYYNEIALRLEAVNEHIPLEPTLEMLSIRFLFACETESITKHLQTELFSDIQKIAPDLRKFGMGDTESIQETGNPEWMEELEKSGLGDKIREFSELQLEGADVMHSSFMNLKGSSFFREMHNWFLPFDAAHSRIAPLLEENAVLKQLVEAIGPQLCNSDRYSFIVSMESLPAALRGSAMGAVGGELDALKEQIKQDVPVGETGKLDTAIKSYLQDLYRFYKVCERKNEFDDIFLSPIPPDLPVLDRYLYKRDTLLHTAEFLFRRKHYDRAAKLLADLAEGKESATDTTLHQKLGFSLQQQGLFAQALAAYSRAELIDTENEWLLKRMAHCYRQLCRPAEAAEIYERLFERNPHEATLLLQRGNALVEDSRYDEALQCFFRYEFSVDDASKARRPIAWCLFLTGQYERAGDYYRTILESDDLSTFTDRLNAGHTSLAMGQIPVAIDHYLAGLKLTPNGKDEFLAAYTADIPVLLKAGIEDAVIRLIPEVLRLHPN”: “failed”.
